Measured values reported in PMC3327287.
Read-outs that look alike come from different tables or passages of the source.

Tests used:
[1] = target: F-actin (actin purified from chicken breast muscle) (chicken) (UniProt P68139); assay: co-sedimentation
[2] = target: F-actin (actin purified from chicken breast muscle) (chicken) (UniProt P68139); assay: co-sedimentation; remark: listed apart in the source

percent of NEM-S1 left in the supernatant (not bound) [1]: 20%
percent of NEM-S1 left in the supernatant (not bound) [2]: 20%
Substance: N-ethylmaleimide (NEM) modified skeletal muscle myosin subfragment 1 (S1) (domain or fragment)
